Test [1] relates to HLA-DR1 molecules. In words: release of biotin-labeled hMBP(90-102) from HLA-DR1 without unlabeled antigenic peptide (assay I). The class given is binding, human. The conditions noted are these: for Relative Release: Table 36, fraction of o.d. of positive control (PBS only = 1.0; negative control = 0.0).
Test [2] has as its system HLA-DR1 molecules. In words: exchange of biotinylated hMBP(90-102) into antigenic peptide-loaded HLA-DR1 (assay III). The class given is binding, human. The conditions noted are these: Table 38; HLA-DR1 preloaded with unlabeled hMBP(90-102) 50 μM; exchange with biotin-labeled hMBP(90-102) 50 μM, 37° C., 1 h; fraction of positive control o.d.; no enhancement = 0.08.
For test [3], the target named is T1, HLA-DR1 molecules (Homo sapiens, UniProt P01903+P01911, A100R/D57E/F55L/F60I/F76Y/I96L/L162R/M171V/P40L/Q125E/R42F/V115G/Y59C).
T1 construct: The HLA-DR alpha gene was truncated after Asn^192 to remove transmembranal and cytoplasmic regions from the protein product; A gene coding for the HLA-DR1 beta chain was truncated after position Lys^198, again to delete the transmembranal region; made in house; host or cells: insect cell line printed as HS / H5 (Invitrogen), co-infected with two baculoviruses; concentrated culture supernatant captured on 12CA5 antibody
In words: binding of biotin-labeled hMBP(90-102) to "empty" HLA-DR1 (assay IV). The conditions noted are these: Table 39; AE101 series compound 64 μM; biotin-labeled hMBP(90-102) 50 μM, 37° C., 1 h; no enhancement = 1.

Test [4] relates to murine E^k MHC class II allele. In words: simultaneous assay, E^k allele (CH27 APC, TPc9.1 T hybridoma, THMCC82-103 or PGCC81-104). The class given is cell-based. The conditions noted are these: Table 1, 0.075 μM THMCC82-103, supernatant 1:2. As to the method: (§1) Examples 1-4 (Tables 1-18) will be briefly considered in order to establish the concept of tolerance discussed above. These examples describe experimental results observed in the so-called “simultaneous” assay. In the simultaneous assay four principle components are cultured together for a 24 hour period. The components of this culture, which are added simultaneously, are: (a) an antigenic peptide characterized by the ability to bind specifically into the antigenic peptide binding groove of an MHC class II molecule, (b) mitomycin C-treated, MHC class II-positive antigen presenting cells (APC) bearing the MHC class II allele required for binding of the specific antigenic peptide, and presentation of the specific antigenic peptide to the antigenic peptide-specific T cell hybridoma, (c) an effector compound of the present invention, and (d) an MHC class II allele-restricted T cell hybridoma specific for the antigenic peptide and the MHC class II allele restricting its presentation. Following incubation of this primary culture, an aliquot of its supernatant is transferred into a second culture well for incubation with an interleukin-dependent lymphoblastoid cell line. The degree of stimulation of that second, indicator cell by the interleukins which had been released from the activated T cell hybridoma in the primary culture is measured by quantitating tritiated thymidine deoxyribose {[^3H]TdR} uptake into the DNA of the HT-2 indicator cells of that second culture.
(§2) In the “simultaneous assay” the four components of the assay are cultured together for a 24 h period. The components of this primary culture, added at the same time or simultaneously, are: (a) the antigenic peptide, (b) mitomycin C-treated, MHC class II-positive antigen presenting cells (APC) with the MHC class II allele required for binding of the specific antigenic peptide and its presentation to the antigenic peptide-specific T cell hybridoma, (c) an AE101 series effector peptide, and (d) MHC class II allele-restricted T cell hybridoma specific for the antigenic peptide and the MHC class II allele restricting its presentation. At the end of the incubation of this primary culture, an aliquot of its supernatant is transferred into a second culture well for incubation with an interleukin-dependent lymphoblastoid cell line. The degree of stimulation of that second, indicator cell by the interleukins which had been released from the activated T cell hybridoma in the primary culture is measured by quantitating tritiated thymidine deoxyribose {[^3H]TdR} uptake into the DNA of the HT-2 indicator cells of that second culture.
(§3) For these various assays, the following antigenic peptides were used: HEL11-25, hen egg lysozyme 11-25, AMKRHGLDNYRGYSL(A^d) (SEQ ID NO:5); HEL46-61, hen egg lysozyme 46-61, NTDGSTDYGILQINSR(Ak) (SEQ ID NO:6); HEL106-116, hen egg lysozyme 106-116, NAWVAWRNRCK (E^d) (SEQ ID NO:7); PGCC81-104, pigeon cytochrome c 81-104, […] (Ek) (SEQ ID NO:8), and THMCC82-103, tobacco hornworm moth cytochrome c 82-103, […] (Ek) (SEQ ID NO:9). AE101 series peptides were obtained from commercial sources. In general, the purity and composition of each peptide was confirmed by HPLC separation and mass spectrometry. The native protein antigens were HEL, hen egg lysozyme, and PGCC, pigeon cytochrome C. They were obtained from commercial sources.
(§4) For the experiments of these Examples, several T cell hybridomas, which are specific for certain antigenic peptides, were used. The TPc9.1 T hybridoma is specific for pigeon cytochrome C 81-104 peptide presented on the murine class II MHC allele E^k. The TPc9.1 hybridoma responds heteroclitically to tobacco hornworm moth cytochrome c 82-103 on E^k. The 3A9 T hybridoma is specific for hen egg lysozyme 46-61 on A^k. The 9.30.B2 hybridoma is specific for hen egg lysozyme 11-25 on A^d, and the G28.C9 hybridoma is specific for hen egg lysozyme 106-116 on E^d. […]

Test [5] relates to HLA-DR1 molecules. In words: release of biotin-labeled hMBP(90-102) from HLA-DR1 in the presence of unlabeled hMBP (assay II). The class given is binding, human.
Test [6] has as its target T2, murine E^d MHC class II allele (Mus musculus, UniProt P01904+P01915).
T2 sequence (P01904 26-255): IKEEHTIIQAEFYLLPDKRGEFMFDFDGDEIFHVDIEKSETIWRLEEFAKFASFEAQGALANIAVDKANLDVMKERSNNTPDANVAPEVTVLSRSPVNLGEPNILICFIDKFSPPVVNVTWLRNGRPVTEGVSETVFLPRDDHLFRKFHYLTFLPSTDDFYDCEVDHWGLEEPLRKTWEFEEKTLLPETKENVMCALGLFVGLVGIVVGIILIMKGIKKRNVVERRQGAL
T2 sequence (P01915 27-264 limits assumed): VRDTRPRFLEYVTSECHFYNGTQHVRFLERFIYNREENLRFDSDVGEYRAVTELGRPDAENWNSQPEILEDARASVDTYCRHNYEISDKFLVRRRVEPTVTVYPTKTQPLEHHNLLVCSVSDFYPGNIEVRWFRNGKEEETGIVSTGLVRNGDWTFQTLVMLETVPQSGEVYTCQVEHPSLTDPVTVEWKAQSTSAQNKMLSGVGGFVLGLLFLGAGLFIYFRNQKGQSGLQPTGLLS
In words: simultaneous assay, E^d allele (A20 APC, G28.C9 T hybridoma, HEL106-116; HT-2 [3H]TdR readout). The class given is cell-based. Set-up: The A20 and CH27 B cell lymphoma lines express H-2^d and H-2^k alleles, respectively; endogenous in cells; host or cells: A20 B cell lymphoma (mitomycin C-treated or paraformaldehyde-fixed). Particulars: Table 1, 0.4 μM HEL106-116, supernatant 1:4. As to the method: as §1, §2, §3, §4

Test [7] has as its target soluble HLA-DR1 (HLA-DR alpha truncated after Asn192 with a C-terminal nine amino acid HA epitope tail; HLA-DR1 beta truncated after Lys198), made in Baculovirus-infected insect cells (human). In words: loading ELISA: empty tethered HLA-DR1 with biotin-hMBP(90-102) 50 uM and AE peptide 64 uM, 1 h 37 C; biotin bound read by avidin-HRP. (An ELISA detects its analyte on a solid surface through an enzyme-linked reagent.)

For test [8] the target is unchanged. In words: exchange ELISA: tethered HLA-DR1 preloaded with unlabeled hMBP(90-102) 50 uM, washed; AE peptide plus biotin-hMBP(90-102) 50 uM, 1 h 37 C; biotin bound as fraction of positive control (overnight loading).
For test [9] the target is unchanged. In words: release ELISA: soluble HLA-DR1 tethered by 12CA5 and preloaded with biotin-hMBP(90-102); AE peptide 64 uM, 1 h 37 C, no unlabeled peptide; biotin still bound read by avidin-HRP (1.0 = PBS control, 0.0 = no DR1; low value = released).
Setting [10] is: AE peptide 16 μM (second value).

The results in this text go back to patent publication US6835382B2, “Ii peptide therapeutics to enhance antigen presentation” (University of Massachusetts, priority 1996, dated 2004).

Turning to AE402 (LRMKLPKPPKPV), the “Relative Release” value in the test with HLA-DR1 molecules [1] (AE101 series compound 64 μM) is on record as 0.65. Further, the “Relative Binding” value in the test on HLA-DR1 molecules [2] is on record as −0.03. Further, the “Relative Enhancement” value in the test with HLA-DR1 molecules [3] was 0.33.
Turning to “AE401: The N-terminal portion of AE100 (LRMKLPKPP)”, in the test with HLA-DR1 molecules [1] (Table 36 (compounds tested at 64 μM)), the “release of biotin-labeled hMBP(90-102) from HLA-DR1 without second unlabeled antigenic peptide, in words” value is “retained capacity to release”. Moreover, the “Relative Release” value in the test on HLA-DR1 molecules [1] (AE101 series compound 64 μM) came to 0.16. The “Relative Binding” value with HLA-DR1 molecules [2] turned out to be 0.45. Further, the “Relative Enhancement” value in the test with HLA-DR1 molecules [3] amounted to 4.29.
In the case of YRMKLPKSAK [AE108], the “Times Baseline Response, E^k” value in test [4] (setting [10]) is given as 0.9; in test [4] (AE peptide 64 μM (first value)), 1.2. Also, in the test on HLA-DR1 molecules [1] (AE101 series compound 64 μM), the “Relative Release” value is 1.14. Also, the “Relative Release, Without unlabeled hMBP(90-102), 1 μM” value in the test with HLA-DR1 molecules [1] (Table 37, AE101 series compound 1 μM, no unlabeled hMBP(90-102)) was found to be 0.52. In addition, the “Relative Release, Without unlabeled hMBP(90-102), 64 μM” value with HLA-DR1 molecules [1] (Table 37, AE101 series compound 64 μM, no unlabeled hMBP(90-102)) stood at 0.31. Besides, the “Relative Release, With unlabeled hMBP(90-102), 1 μM” value in the test on HLA-DR1 molecules [5] (Table 37, AE101 series compound 1 μM, unlabeled hMBP(90-102) 250 μM) worked out at 0.00. Also, in the test on HLA-DR1 molecules [5] (Table 37, AE101 series compound 64 μM, unlabeled hMBP(90-102) 250 μM), the “Relative Release, With unlabeled hMBP(90-102), 64 μM” value came out at 0.14. Further, the “Times Baseline Response, E^d” value is given as 11.6 in test [6] (setting [10]) and 32.0 in [6] (AE peptide 64 μM (first value)).
Consider AE100 (YRMKLPKPPKPVSKMR), for which the “Relative Release” value with HLA-DR1 molecules [1] (AE101 series compound 64 μM) is listed as 0.37. The “Relative Binding” value in the test on HLA-DR1 molecules [2] turned out to be 0.31. For the same molecule, the “Relative Enhancement” value in the test with HLA-DR1 molecules [3] was 3.44.
For the molecule AE403 (MKLPKPPKPV), in the test on HLA-DR1 molecules [1] (AE101 series compound 64 μM), the “Relative Release” value is reported as 0.64. For the same molecule, the “Relative Binding” value in the test on HLA-DR1 molecules [2] amounted to 0.40. In addition, in the test with HLA-DR1 molecules [3], the “Relative Enhancement” value was determined as 0.47.
As to “unlabeled hMBP(90-102): human myelin basic protein (hMBP) peptide (90-102), antigenic peptide binding HLA-DR1, unlabeled (HLIRLFSRDAPGR) [reference compound]”, the “release of biotin-labeled hMBP(90-102) (Relative Release)” value in the test on HLA-DR1 molecules [5] (unlabeled hMBP(90-102) (250 μM) alone without AE101 series compounds) worked out at 0.81.
For the molecule Ac-LPKSAKPV-NH2 [AE405], the Relative Enhancement (of biotin-hMBP(90-102) binding to empty HLA-DR1) (relative to no AE peptide = 1) in [7] worked out at 0.43. Moreover, in test [8], the Relative Binding (of biotin-hMBP(90-102) to HLA-DR1) (fraction of positive control o.d.) turned out to be 0.57. Further, in test [9], the Relative Release (fraction of positive control o.d.) was 0.11.
Ac-MKLPKPPKPV-NH2 [AE403]: in [7], the Relative Enhancement (of biotin-hMBP(90-102) binding to empty HLA-DR1) (relative to no AE peptide = 1) is 0.47. Besides, the Relative Binding (of biotin-hMBP(90-102) to HLA-DR1) (fraction of positive control o.d.) in test [8] was 0.4. Also, the Relative Release (fraction of positive control o.d.) in test [9] came out at 0.64.
As to Ac-LRMKLPKPP-NH2 [AE401], in test [7], the Relative Enhancement (of biotin-hMBP(90-102) binding to empty HLA-DR1) (relative to no AE peptide = 1) came to 4.29. Besides, the Relative Binding (of biotin-hMBP(90-102) to HLA-DR1) (fraction of positive control o.d.) in test [8] came out at 0.45. Moreover, the Relative Release (fraction of positive control o.d.) in test [9] was found to be 0.16.
Take YRMKLPKSAKPV [AE107]: the Relative Enhancement (of biotin-hMBP(90-102) binding to empty HLA-DR1) (relative to no AE peptide = 1) in [7] was 2.59. In addition, the Relative Binding (of biotin-hMBP(90-102) to HLA-DR1) (fraction of positive control o.d.) in [8] was 1.04. Further, the Relative Release (fraction of positive control o.d.) in test [9] was -0.07.
For Ac-LRMKLPKPPKPV-NH2 [AE402] the same measures were 0.33, -0.03 and 0.65.
With YRMKLPKPPKPVSKMR [AE100], the Relative Enhancement (of biotin-hMBP(90-102) binding to empty HLA-DR1) (relative to no AE peptide = 1) in test [7] was 3.44. For the same molecule, the Relative Binding (of biotin-hMBP(90-102) to HLA-DR1) (fraction of positive control o.d.) in test [8] came to 0.31. For the same molecule, the Relative Release (fraction of positive control o.d.) in [9] turned out to be 0.37.
In the case of KLPKSAKPVSQMR [AE103], in [9], the Relative Release (fraction of positive control o.d.) worked out at 0.01.
On to SAKPVSQMR [AE105], for which, in test [9], the Fraction of biotin-hMBP still bound (fraction of positive control o.d.) came out at 0.16.
As for PKSAKPVSQMR [AE104], the Relative Release (fraction of positive control o.d.) in [9] came to 0.02.
